Target: T1, LOXL2-Flag (human, UniProt Q9Y4K0 26-774)
T1 construct: Lysyl oxidase-like 2 (LOXL2), human, full-length form (774 aa by the printed limits of its C-terminal domain); also called Flag-tagged LOXL2; source: HEK293T, transfected, immunopurified
T1 sequence (looked up): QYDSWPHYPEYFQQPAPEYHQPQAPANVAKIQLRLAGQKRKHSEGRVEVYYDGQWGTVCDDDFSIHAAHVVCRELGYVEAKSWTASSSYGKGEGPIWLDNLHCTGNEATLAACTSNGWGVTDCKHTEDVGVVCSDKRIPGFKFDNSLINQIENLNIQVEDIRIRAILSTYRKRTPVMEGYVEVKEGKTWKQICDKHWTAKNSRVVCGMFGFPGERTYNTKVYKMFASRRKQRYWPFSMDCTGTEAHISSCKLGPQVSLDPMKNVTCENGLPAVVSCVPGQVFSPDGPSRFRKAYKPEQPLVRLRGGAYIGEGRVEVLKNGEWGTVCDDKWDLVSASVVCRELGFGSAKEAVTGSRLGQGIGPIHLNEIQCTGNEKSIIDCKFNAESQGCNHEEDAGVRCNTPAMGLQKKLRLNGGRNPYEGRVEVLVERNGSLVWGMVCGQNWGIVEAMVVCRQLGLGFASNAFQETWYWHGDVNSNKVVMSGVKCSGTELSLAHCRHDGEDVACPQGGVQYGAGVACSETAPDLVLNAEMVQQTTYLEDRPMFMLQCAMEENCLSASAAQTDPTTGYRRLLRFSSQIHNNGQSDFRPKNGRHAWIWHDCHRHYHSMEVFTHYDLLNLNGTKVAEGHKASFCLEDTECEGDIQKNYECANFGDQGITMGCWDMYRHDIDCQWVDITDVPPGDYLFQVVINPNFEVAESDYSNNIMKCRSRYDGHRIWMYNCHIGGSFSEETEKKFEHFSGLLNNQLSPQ
Assay: pull-down; Purified GST-aldolase A or GST from bacteria on glutathione resins, incubated with immunopurified LOXL2-Flag or L2Δ13-Flag from HEK293T at 4 °C for 2 h; immunoblot with anti-Flag
Settings: both partners purified

binding result: binds
B1: GST-aldolase A (enzyme, human)
chain: PYQYPALTPEQKKELSDIAHRIVAPGKGILAADESTGSIAKRLQSIGTENTEENRRFYRQLLLTADDRVNPCIGGVILFHETLYQKADDGRPFPQVIKSKGGVVGIKVDKGVVPLAGTNGETTTQGLDGLSERCAQYKKDGADFAKWRCVLKIGEHTPSALAIMENANVLARYASICQQNGIVPIVEPEILPDGDHDLKRCQYVTEKVLAAVYKALSDHHIYLEGTLLKPNMVTPGHACTQKFSHEEIAMATVTALRRTVPPAVTGITFLSGGQSEEEASINLNAINKCPLLKPWALTFSYGRALQASALKAWGGKKENLKAAQEEYVKRALANSLACQGKYTPSGQAGAAASESLFVSNHAY
notes: Aldolase A (fructose-bisphosphate aldolase A), human; also called GST-tagged aldolase A; GST-Aldolase A fusion protein; source: bacteria, purified recombinant, retained on glutathione resins

Source: paper PMC9547286, “LOXL2-dependent deacetylation of aldolase A induces metabolic reprogramming and tumor progression^☆” (Redox Biology, 2022)
